Results published in publication PMC11815680, “Receptor-independent regulation of Gα13 by alpha-1-antitrypsin C-terminal peptides” (The Journal of Biological Chemistry, 2024).

Tests used:
Settings in all cases: both partners purified
[1] = biological target: T1, GST-p115-RH (human p115RhoGEF amino acid residues 1-252, N-terminal region including the RH domain) (human, UniProt Q92888 1-252); assay: pull-down; GST-RH protein on glutathione-Sepharose 4B, untagged Gα13iN (2 μg) in buffer A (20 mM HEPES, 5 mM βME, 1 mM MgCl2, 100 mM NaCl, 10 μM GDP, 0.1% C12E10, pH 8.0) with AlF4^- (30 μM AlCl3, 5 mM MgCl2, 5 mM NaF), 60 min at 4 °C; blot with Gα13 antibodies
T1 construct: human p115RhoGEF, amino acid residues 1-252 (the results once say 1-246); also called p115-RhoGEF-RH; source: E. coli BL21[DE3], purified (glutathione-sepharose 4B, eluted with glutathione, dialysed)
T1 sequence (looked up): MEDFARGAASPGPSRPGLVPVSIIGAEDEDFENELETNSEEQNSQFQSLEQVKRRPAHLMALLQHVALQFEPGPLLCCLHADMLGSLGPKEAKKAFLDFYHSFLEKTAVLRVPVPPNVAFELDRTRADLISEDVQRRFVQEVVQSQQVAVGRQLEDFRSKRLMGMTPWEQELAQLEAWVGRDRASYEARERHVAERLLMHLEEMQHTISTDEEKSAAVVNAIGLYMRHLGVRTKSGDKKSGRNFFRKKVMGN

[2] = biological target: T2, GST-p115-RH(42-252), the RGS box of p115-RhoGEF-RH which lacks the N-terminal extension (human, UniProt Q92888 42-252); assay: pull-down; as a2 but buffer A with 10 μM GDP and mAAT-C_(1-17) added instead of AlF4^-
T2 construct: human p115RhoGEF, residues 42-252 (RGS box, lacks the N-terminal extension); also called p115-RhoGEF-RH domain (42–252); source: E. coli BL21[DE3], purified (glutathione-sepharose 4B, eluted with glutathione, dialysed)
T2 sequence (looked up): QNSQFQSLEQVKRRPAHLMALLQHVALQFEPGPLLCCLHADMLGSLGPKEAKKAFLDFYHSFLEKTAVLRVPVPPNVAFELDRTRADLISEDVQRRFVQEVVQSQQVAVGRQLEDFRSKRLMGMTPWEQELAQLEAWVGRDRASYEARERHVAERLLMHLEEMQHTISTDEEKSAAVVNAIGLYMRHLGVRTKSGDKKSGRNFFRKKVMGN

[3] = biological target: T3, GST-LARG-RH (human LARG amino acid residues 319-598) (human, UniProt Q9NZN5 319-598); assay: pull-down; as a2 but buffer A with 10 μM GDP and mAAT-C_(3-16) added instead of AlF4^-
T3 construct: human LARG (leukemia-associated RhoGEF), amino acid residues 319-598; also called leukemia-associated RhoGEF RH; source: E. coli BL21[DE3], purified (glutathione-sepharose 4B, eluted with glutathione, dialysed)
T3 sequence (looked up): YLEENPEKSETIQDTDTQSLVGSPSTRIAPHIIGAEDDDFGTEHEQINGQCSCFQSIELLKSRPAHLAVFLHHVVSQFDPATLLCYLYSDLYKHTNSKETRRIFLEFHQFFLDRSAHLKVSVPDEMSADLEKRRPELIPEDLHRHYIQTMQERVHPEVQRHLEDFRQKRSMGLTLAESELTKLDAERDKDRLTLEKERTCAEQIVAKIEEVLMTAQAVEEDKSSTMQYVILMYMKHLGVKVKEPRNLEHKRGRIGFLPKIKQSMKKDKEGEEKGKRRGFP

Measured: binding result

B1: untagged Gα13iN recombinant protein (GDP-bound) (other, rat | mouse, UniProt P10824 1-28, looked up)
chain: MGCTLSAEDKAAVERSKMIDRNLREDGERLVKILLLGAGESGKSTFLKQMRIIHGQDFDQRAREEFRPTIYSNVIKGMRVLVDAREKLHIPWGDNKNQLHGDKLMAFDTRAPMAAQGMVETRVFLQYLPAIRALWEDSGIQNAYDRRREFQLGESVKYFLDNLDKLGVPDYIPSQQDILLARRPTKGIHEYDFEIKNVPFKMVDVGGQRSERKRWFECFDSVTSILFLVSSSEFDQVLMEDRQTNRLTESLNIFETIVNNRVFSNVSIILFLNKTDLLEEKVQVVSIKDYFLEFEGDPHCLRDVQKFLVECFRGKRRDQQQRPLYHHFTTAINTENIRLVFRDVKDTILHDNLKQLMLQ
notes: N-terminal region (αN helix) of rat Gαi1, amino acid residues 1-28; A few vector residues are likely left after PreScission cleavage of the pGEX-6P-1 product (surmise); also called Gα13iN・GDP; Gα13・GDP; source: E. coli BL21[DE3], purified (glutathione-sepharose 4B, cut off the column with PreScission Protease, dialysed; GDP added to 10 μM)
binds: all assays above
